Experimental data published in paper PMC11695829, “DSIF factor Spt5 coordinates transcription, maturation and exoribonucleolysis of RNA polymerase II transcripts” (Nature Communications, 2025).

T1: Full-length Spt4/5 heterodimer (DSIF) (S. pombe, UniProt O13936 1-990; Q9P7K8 1-105)
T1 construct: Spt5 of S. pombe, full length; Spt4 of S. pombe, full length; Co-expressed heterodimer, used as one preformed complex in all in vitro experiments; Only the Kow5 domain of Spt5 is seen in the cryo-EM map; also called Spt5-Spt4; Spt5
T1 sequence (looked up) 1: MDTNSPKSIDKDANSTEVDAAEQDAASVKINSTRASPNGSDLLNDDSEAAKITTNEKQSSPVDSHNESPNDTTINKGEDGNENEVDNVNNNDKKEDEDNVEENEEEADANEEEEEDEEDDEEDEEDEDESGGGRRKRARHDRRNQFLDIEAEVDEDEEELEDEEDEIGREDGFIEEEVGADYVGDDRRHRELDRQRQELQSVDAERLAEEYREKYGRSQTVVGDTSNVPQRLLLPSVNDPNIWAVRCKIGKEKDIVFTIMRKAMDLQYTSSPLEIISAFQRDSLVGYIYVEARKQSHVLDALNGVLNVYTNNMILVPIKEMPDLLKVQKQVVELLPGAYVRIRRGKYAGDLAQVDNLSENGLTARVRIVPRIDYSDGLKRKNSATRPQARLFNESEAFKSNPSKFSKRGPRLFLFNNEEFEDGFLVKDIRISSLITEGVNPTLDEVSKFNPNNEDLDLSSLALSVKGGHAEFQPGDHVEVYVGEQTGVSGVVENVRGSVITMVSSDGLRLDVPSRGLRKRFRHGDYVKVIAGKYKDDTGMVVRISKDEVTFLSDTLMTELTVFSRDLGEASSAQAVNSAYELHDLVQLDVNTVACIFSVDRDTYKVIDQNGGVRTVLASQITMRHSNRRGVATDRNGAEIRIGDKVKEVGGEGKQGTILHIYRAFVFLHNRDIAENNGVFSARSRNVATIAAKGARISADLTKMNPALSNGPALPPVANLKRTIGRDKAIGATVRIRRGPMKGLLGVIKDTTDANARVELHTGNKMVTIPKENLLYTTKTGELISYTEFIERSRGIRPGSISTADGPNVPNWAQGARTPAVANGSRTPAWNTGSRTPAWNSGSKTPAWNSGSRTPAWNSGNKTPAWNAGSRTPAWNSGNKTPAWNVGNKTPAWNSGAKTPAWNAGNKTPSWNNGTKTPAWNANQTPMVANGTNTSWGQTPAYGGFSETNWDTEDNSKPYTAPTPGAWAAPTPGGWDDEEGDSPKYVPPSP
T1 sequence (looked up) 2: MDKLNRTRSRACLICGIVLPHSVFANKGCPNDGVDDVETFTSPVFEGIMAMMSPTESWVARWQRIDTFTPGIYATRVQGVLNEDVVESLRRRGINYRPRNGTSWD


Columns and labels:
[1] = target: C-terminally truncated Xrn2 (residues 1–885), WT (S. pombe)
[2] = target: T1, Full-length Spt4/5 heterodimer (DSIF); experiment: pull-down; Rai1 immobilised on beads and challenged with Xrn2 or Xrn2/Spt4/5; no Pol II; conditions: both partners purified

| Binder | half-life of normalised anisotropy (a proxy for substrate half-life) in the degradation of P-RNA-FAM by Xrn2, fluorescence anisotropy; decrease in the presence of Kow5-sCTR [1] [fold] | binding result [2] |
| --- | --- | --- |
| Kow5-sCTR (Spt5 region 720 to 874 aa, N-terminal His-tag) (domain or fragment) LKRTIGRDKAIGATVRIRRGPMKGLLGVIKDTTDANARVELHTGNKMVTIPKENLLYTTKTGELISYTEFIERSRGIRPGSISTADGPNVPNWAQGARTPAVANGSRTPAWNTGSRTPAWNSGSKTPAWNSGSRTPAWNSGNKTPAWNAGSRTPA | 3 |  |
| full-length Rai1 Strep-tagged (natural protein, S. pombe, UniProt O13836 1-352, looked up, source: Rosetta E. coli, purified (StrepTrap HP, Superdex 200)) MLREFSFYDVPPAHVPPVSEPLEIACYSLSRDRELLLDDSKLSYYYPPPLFSDLNTGFPNRFHPPKSDPDPISIVKDVLMTKGIQMNSSFLTWRGLITKIMCAPLDPRNHWETYLVMDPTSGIIMMEERTRSETSYANQDRMCYWGYKFEAISTLPEIWDACSRDQIEQRDNQDVVPDEQYCSIVKINIGKSKLILAGEVDCIWDKKPCSAKESDVHSDDGTIEEDASNAENPNLHYVELKTSKKYPLENYGMRKKLLKYWAQSFLLGIGRIIIGFRDDNGILIEMKELFTHQIPKMLRPYFKPNDWTPNRLLVVLEHALEWIKQTVKQHPPSTEFTLSYTGGSKLVLRQII |  | binds |
